# Columns and labels:
# [1] = HC263-mediated binding of magnetic beads to surfaces, SEM score: wool; details: surface wool, 0.2 μM HC263
# Procedure: (§1) Peptide HC263 (SEQ ID NO: 196) was tested for peptide-mediated binding of magnetic beads to various surfaces: human hair, yak hair, wool, cotton, SONTARA® (a nonwoven, spunlaced textile sheet fabric, E.I. duPont de Nemours and Company, Inc., Wilmington, Del.), and cellulose (filter paper). Approximately 5 mg of human hair (90% gray), yak hair, wool, cotton, SONTARA®, or filter paper were added to 2-mL microcentrifuge tubes. Approximately 1 mL of TBST0.1 buffer (25 mM Tris, 150 mM NaCl, pH 7.2, with 0.1% TWEEN®-20) containing 0.2 μM HC263 was added. The mixtures were shaken on a Nutator (BD Diagnostics, Franklin Lakes, N.J.) for 30 minutes at room temperature (˜22° C.). The samples were washed three times with TBST0.5 buffer (25 mM Tris, 150 mM NaCl, pH 7.2, with 0.5% TWEEN®-20). After washing, the samples were re-suspended in 900 μL TALON™ (Clontech, Mountain View, Calif.) buffer (50 mM sodium phosphate, pH 8.0, 300 mM sodium chloride, 0.01% TWEEN®-20). Approximately 0.2 mg of TALON™ beads (DYNABEADS® TALON™, Invitrogen, Carlsbad, Calif.; Catalog#101.01D) were washed twice with TALON™ buffer on the DYNAL® MPC™ magnet (Invitrogen) and added to each reaction in 100-μL TALON™ buffer.
# (§2) The strength of binding of the magnetic beads to the various surfaces was evaluated by visualization of scanning electron microscope (SEM) images taken at 1000-fold magnification.
# [2] = HC263-mediated binding of magnetic beads to surfaces, SEM score: cellulose; details: surface cellulose (filter paper), 0.2 μM HC263
# Procedure: as §1, §2
# [3] = HC263-mediated binding of magnetic beads to surfaces, SEM score: cotton; details: surface cotton, 0.2 μM HC263
# Procedure: as §1, §2
# [4] = HC263-mediated binding of magnetic beads to surfaces, SEM score: yak hair; details: surface yak hair, 0.2 μM HC263
# Procedure: as §1, §2
# [5] = Peptide-mediated binding of Co-NTA magnetic beads to gray hair, visual rating on magnet; parameters: species or system human
# Procedure: Approximately 5 mg of 5 mm long hair strands (90% gray, human) were transferred to 2-mL microcentrifuge tubes. Approximately 1 mL of TBST0.1 buffer (25 mM Tris, 150 mM NaCl, pH7.2, with 0.1% TWEEN®-20) or the same buffer including varying concentrations of HC263 peptide was added to the hair.
# The mixtures were shaken on a Nutator for one hour at room temperature (˜22° C.). The hairs were washed three times with TBST0.5 buffer (25 mM Tris, 150 mM NaCl, pH 7.2, with 0.5% TWEEN®-20). After washing, the hairs were resuspended in 900 μL Talon buffer (50 mM sodium phosphate, pH 8.0, 300 mM sodium chloride, 0.01% TWEEN®-20). A subset of hair/peptide conjugates were washed additionally one time with 1 mL of 0.25% SLES (Sodium Lauryl Ether Sulfate) for 5 min at room temperature on the Nutator, then washed two times with 1 mL TBST0.1 buffer. Approximately 0.2 mg of TALON™ beads (DYNABEADS® TALONT™, Invitrogen, Catalog#101.01D) were washed twice with TALON™ buffer on the DYNAL® MPC™ magnet and added to each reaction in 100 μL TALON™ buffer. The magnetic beads were coated with Co-NTA, which specifically binds to the six histidine residues incorporated into the peptide (C-terminal his tag). The hair and beads were incubated for 10 minutes with gentle shaking before the tubes were placed on the magnet.
# Beads binding to the hair were expected to co-migrate on the sides of the tubes once applied to the magnet. The strength of binding was visually assessed and rated on a scale of 0 (little or no observed binding) to 5 (highest amount of observed binding).
# The hair binding assay of Example 3 was used to assess the strength of binding of the test peptides in Table 10.
# [6] = HC263-mediated binding of magnetic beads to surfaces, SEM score: SONTARA; details: surface SONTARA, 0.2 μM HC263
# Procedure: as §1, §2
Molecule,"Strength of binding (5 highest, 0 lowest) [1]","Strength of binding (5 highest, 0 lowest) [2]","Strength of binding (5 highest, 0 lowest) [3]","Strength of binding (5 highest, 0 lowest) [4]","Strength of binding (5 highest, 0 lowest) ([5]; Table 9, peptide 0.002 μM, no SLES wash)","Strength of binding (5 highest, 0 lowest) ([5]; Table 11, peptide 0.002 μM)","Strength of binding (5 highest, 0 lowest) ([5]; Table 11, peptide 0.02 μM)","Strength of binding (5 highest, 0 lowest) ([5]; Table 11, peptide 0.2 μM)","Strength of binding (5 highest, 0 lowest) [6]"
MASGSDPS-Hair2-GPEPEPEPEPIPEPPKEAPVVIEKPKPKPKPKPKPPA-Gray3-GSGGGGSP-HHHHHH (peptide) MASGSDPSAQSQLPDKHSGLHERAPQRYGPEPEPEPEPIPEPPKEAPVVIEKPKPKPKPKPKPPAHDHKNQKETHQRHAAGSGGGGSPHHHHHH,0,0,0,1,2,2,5,5,0
MASGSDPS-Hair2Rnd1-GPEPEPEPEPIPEPPKEAPVVIEKPKPKPKPKPKPPA-Gray3Rnd4-GSGGGGSP-HHHHHH (peptide) MASGSDPSDRSKLYQSLEHRQPPGAHAQGPEPEPEPEPIPEPPKEAPVVIEKPKPKPKPKPKPPAAHDAKHEHRKQNHTQGSGGGGSPHHHHHH,,,,,,2,5,5,

# From patent publication US20100247590A1, “Peptide-Based Systems For Delivery Of Cosmetic Agents” (JOHNSON & JOHNSON, priority 2009, published 2010)
